Patent US20160152728A1 (AFFEMED, published 2016)

Legend:
[1] = target: T1, EGFRvIII-Fc fusion antigen (human, UniProt P00533 25-645); test: ELISA on coated EGFRvIII-Fc; TandAb detected with Protein L-HRP, Abs(450nm) [EGFRvIII binding]
[2] = target: T2, EGFRvIII expressed on cells (CHO^EGFRvIII, F98^EGFRvIII) (UniProt P00533 25-1210); test: flow cytometry on F98^EGFRvIII cells; scFv detected with anti-His followed by FITC-conj. goat anti-mouse IgG, mean fluorescence intensity
T2 construct: whole, on cells; the vIII deletion must be applied; also called deletion mutant EGFRvIII

[3] = target: T1, EGFRvIII-Fc fusion antigen; test: SPR Biacore T200, EGFRvIII-Fc captured via anti-hu Fc, scFv analyte, 1:1 model;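 note: Multi-cycle kinetics on a CM5 chip in HBS-P+ running buffer, 180 s scFv association then 540 s dissociation, with blank flow cell signals subtracted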
Method: Anti-hu Fc IgG CM5-chip was prepared by covalent amine coupling by using the Amine-Coupling-Kit (GE), according to the instructions of the manufacturer. The IgG was diluted in the provided immobilization buffer (10 mM sodium acetate, pH 5.0) to a concentration of 25 μg/ml. For the coupling procedure, the predefined method “Amine” of the Biacore T200 control software was applied. A target level between 5000-10000 RU for all 4 flow cells was reached. The surface of the chip was activated with EDC/NHS before injecting the recombinant protein solutions. Free binding sites on the surface were blocked with ethanolamine. 1×HBS-P+ was selected as a running buffer for the entire coupling procedure.
Flowcell 1 and 3 were blanks. 1×HBS-P+ was used as running buffer for the entire procedure. The scFv antibodies were injected at a flow rate of 30 μL/min for 180 sec over all four flowcells. Signals measured in the flowcell 1 without captured antigen were subtracted from signals in the flowcell 2 to correct the binding curves for background binding. Signals measured in the flowcell 3 without captured antigen were subtracted from signals in the flowcell 4 to correct the binding curves for background binding. After 540 sec dissociation time the chip was regenerated as described below.
The Kinetics of scFv antibodies were determined in MCK (Multi Cycle Kinetic) measurements. For estimation of apparent binding affinities the binding curves were evaluated using the “Kinetic” method included in the Biacore evaluation software. By this method the binding curves are globally fitted by the software using the “Langmuir 1:1 interaction model”.

[4] = target: T3, wild type EGFR expressed on cells (CHO^EGFR, F98^EGFR) (human, UniProt P00533 25-1210); test: flow cytometry on F98^EGFR cells; scFv detected with anti-His followed by FITC-conj. goat anti-mouse IgG
T3 construct: whole, on cells; also called native EGFR; EGFRwt
Method: After a second washing cycle, the cells were incubated with 0.1 mL of 15 μg/mL FITC-conjugated goat anti-mouse IgG antibodies under the same conditions as before. As a control, cells were incubated with the anti-His IgG 13/45/31 followed by the FITC-conjugated goat anti-mouse IgG antibodies without scFvs. The cells were then washed again and resuspended in 0.2 mL of FACS buffer containing 2 μg/mL propidium iodide in order to exclude dead cells. The fluorescence of 1×10⁴ living cells was measured using a Beckman-Coulter FC500 MPL flow cytometer using the MXP software (Beckman-Coulter, Krefeld, Germany) or a Millipore Guava EasyCyte flow cytometer using the Incyte software (Merck Millipore, Schwalbach, Germany). Mean fluorescence intensities of the cell samples were calculated using CXP software (Beckman-Coulter, Krefeld, Germany) or Incyte software (Merck Millipore, Schwalbach, Germany).
In case of analysis with Beckman-Coulter FC500 MPL flow cytometer 0.5×10⁶ cells/staining and in case of Millipore Guava EasyCyte flow cytometer only 0.25×10⁶ cells/staining were used.

[5] = target: T2, EGFRvIII expressed on cells …; test: cell-based or functional assay

Binder | EC50 (read off the curve) [1] | EC50 (read off the curve) [2] | KD improvement factor vs parental scFv Li3G30 [3] | Kd [3] | kOFF improvement factor vs parental scFv Li3G30 [3] | kON improvement factor vs parental scFv Li3G30 [3] | koff [3] | kon [3] | binding result [4] | EC50 in the cytotoxicity assay (CHO^EGFRvIII target cells) [5]
TandAb EGFRvIII(ABC479)/CD3, domain order (iv) VH^EGFRvIII-VL^CD3-VH^CD3-VL^EGFRvIII (bispecific antibody, part only; not given: CD3 domain and linkers, part only) tandem diabody polypeptide (homodimer), part: QSGAEVKKPGEVQLVESLKISCKGSGYDFSSYWIGWVRQMPGKGLEWMGIIYPGDSDTIYSPSFQGQVTISADKSISTAYLQWSSLKASDTAMYYCARLGSSWTNDAFDIWGQGTLVTVSSSYELTQPPSVSVSPGQTARITCSGAALPEQYAYWYQQKPGQAPVLVIYKDSERPSGIPERFSGSSSGTTVTLTISGVQAEDEADYYCQSVDSSGTFYVFGGGTKLTVL | 0.9 nM |  |  |  |  |  |  |  |  | 
scFv 469 (scFv, V domains shown, One-chain scFv, His-tagged) VH: EVQLVQSGAEVKKPGESLKISCKGSGYSFNSYWIGWVRQMPGKGLEWMGIIYPGDSDTRYSPSFQGQVTISADKSISTAYLQWSSLKASDTAMYYCARLGSSWTNDAFDIWGQGTLVTVSS VL: SYELTQPPSVSVSPGQTARITCSGDTLPKQYAYWYQQKPGQAPVLVIYKDSERPSGIPERFSGSSSGTTVTLTISGVQAEDEADYYCQSVDVSGTYVVFGGGTKLTVL |  | 2 nM | 10.8 fold | 0.72 nM | 2 fold | 5.2 fold | 0.0006 s⁻¹ | 830000 M⁻¹ s⁻¹ |  | 
scFv 479 (scFv, V domains shown, One-chain scFv, His-tagged) VH: EVQLVQSGAEVKKPGESLKISCKGSGYDFSSYWIGWVRQMPGKGLEWMGIIYPGDSDTIYSPSFQGQVTISADKSISTAYLQWSSLKASDTAMYYCARLGSSWTNDAFDIWGQGTLVTVSS VL: SYELTQPPSVSVSPGQTARITCSGAALPEQYAYWYQQKPGQAPVLVIYKDSERPSGIPERFSGSSSGTTVTLTISGVQAEDEADYYCQSVDSSGTFYVFGGGTKLTVL |  |  | 3.1 fold | 2.54 nM | 1.3 fold | 2.4 fold | 0.00096 s⁻¹ | 380000 M⁻¹ s⁻¹ |  | 
scFv 475 (scFv, V domains shown, One-chain scFv, His-tagged) VH: EVQLVQSGAEVKKPGESLKISCKGSGYSFTSYWIGWVRQMPGKGLEWMGIIYPDDSDTRYSPSFQGQVTISADKSISTAYLQWSSLKASDTAMYYCARLGSSWTNDAFDIWGQGTLVTVSS VL: SYELTQPPSVSVSPGQTARITCSGDALPKQYAYWYQQKPGQAPVLVIYKDTERPSGIPERFSGSSSGTTVTLTISGVQAEDEADYYCQSVDSSGTYVVFGGGTKLTVL |  | ~2 nM | 11.1 fold | 0.7 nM | 1.5 fold | 7.5 fold | 0.0008 s⁻¹ | 1.2e+06 M⁻¹ s⁻¹ | no binding (tested: about 3300 nM) | 
scFv 473 (scFv, V domains shown, One-chain scFv, His-tagged) VH: EVQLVQSGAEVKKPGESLKISCKGSGYSFSSYWIGWVRQMPGKGLEWMGIIYPGDSDTRYSPSFQGQVTISADKSISTAYLQWSSLKASDTAMYYCARLGSSWTNDAFDIWGQGTLVTVSS VL: SYELTQPPSVSVSPGQTARITCSGHALPSQYAYWYQQKPGQAPVLVIYKDTERPSGIPERFSGSSSGTTVTLTISGVQAEDEADYYCQSVDSSGTSVIFGGGTKLTVL |  | ~2 nM | 11.6 fold | 0.67 nM | 1.5 fold | 7.5 fold | 0.0008 s⁻¹ | 1.2e+06 M⁻¹ s⁻¹ | no binding (tested: about 3300 nM) | 
scFv 478 (scFv, V domains shown, One-chain scFv, His-tagged) VH: EVQLVQSGAEVKKPGESLKISCKGSGYSFNSYWIGWVRQMPGKGLEWMGIIYPGDEDTRYSPSFQGQVTISADKSISTAYLQWSSLKASDTAMYYCARLGSSWTNDAFDIWGQGTLVTVSS VL: SYELTQPPSVSVSPGQTARITCSGDALPKQYAYWYQQKPGQAPVLVIYKDTERPSGIPERFSGSSSGTTVTLTISGVQAEDEADYYCQSVDPSGTYVVFGGGTKLTVL |  | ~2 nM | 49.6 fold | 0.16 nM | 5.2 fold | 8.8 fold | 0.00023 s⁻¹ | 1.4e+06 M⁻¹ s⁻¹ | no binding | 
scFv 472 (scFv, V domains shown, One-chain scFv, His-tagged) VH: EVQLVQSGAEVKKPGESLKISCKGSGYSFGYYWIGWVRQMPGKGLEWMGIIYPGDSHTRYSPSFQGQVTISADKSISTAYLQWSSLKASDTAMYYCARLGSSWTNDAFDIWGQGTLVTVSS VL: SYELTQPPSVSVSPGQTARITCSGDALPKQYAYWYQQKPGQAPVLVIYKDTERPSGIPERFSGSSSGTTVTLTISGVQAEDEADYYCQSVDSSGTQVVFGGGTKLTVL |  | ~1 nM | 96.3 fold | 0.08 nM | 4 fold | 23.8 fold | 0.0003 s⁻¹ | 3.8e+06 M⁻¹ s⁻¹ | no binding (tested: about 3300 nM) | 
scFv 474 (scFv, V domains shown, One-chain scFv, His-tagged) VH: EVQLVQSGAEVKKPGESLKISCKGSGYSFSHYWIGWVRQMPGKGLEWMGITYPGDVDTRYDPSFQGQVTISADKSISTAYLQWSSLKASDTAMYYCARLGSSWTNDAFDIWGQGTLVTVSS VL: SYELTQPPSVSVSPGQTARITCSGDALPKTYAYWYQQKPGQAPVLVIYKDTERPSGIPERFSGSSSGTTVTLTISGVQAEDEADYYCQSADSSGTYLVFGGGTKLTVL |  | ~2 nM | 16.3 fold | 0.48 nM | 0.8 fold | 20.6 fold | 0.0016 s⁻¹ | 3.3e+06 M⁻¹ s⁻¹ | no binding (tested: about 3300 nM) | 
EGFRvIII/CD3 tandem diabody with parental EGFRvIII binding domain Li3G30 and CD3 domain v64, domain order (i) VL^CD3-VH^EGFRvIII-VL^EGFRvIII-VH^CD3 … (bispecific antibody, part only; not given: CD3 v64 domain and linkers, not shown: small tags and cut ends) chain, part: EVQLVQSGAEVKKPGESLKISCKGSGYSFTSYWIGWVRQMPGKGLEWMGIIYPGDSDTRYSPSFQGQVTISADKSISTAYLQWSSLKASDTAMYYCARLGSSWTNDAFDIWGQGTMVTVSSSYELTQPPSVSVSPGQTARITCSGDALPKQYAYWYQQKPGQAPVLVIYKDSERPSGIPERFSGSSSGTTVTLTISGVQAEDEADYYCQSADSSGTPLIVFGTGTKLTVL |  |  |  |  |  |  |  |  |  | 0.025 nM

Now from value to binder, other results behind:

EC50 (read off the curve) [1] | EC50 (read off the curve) [2] | KD improvement factor vs parental scFv Li3G30 [3] | Kd [3] | kOFF improvement factor vs parental scFv Li3G30 [3] | kON improvement factor vs parental scFv Li3G30 [3] | koff [3] | kon [3] | binding result [4] | Binder | EC50 in the cytotoxicity assay (CHO^EGFRvIII target cells) [5]
 | ~2 nM | 5 fold | 1.56 nM | 1.1 fold | 4.3 fold | 0.0011 s⁻¹ | 690000 M⁻¹ s⁻¹ | no binding (tested: about 3300 nM) | scFv 476 (scFv, V domains shown, One-chain scFv, His-tagged) VH: EVQLVQSGAEVKKPGESLKISCKGSGYSFTSYWIGWVRQMPGKGLEWMGIIYPGDSDTRYSPSFQGQVTISADKSISTAYLQWSSLKASDTAMYYCARLGSSWTNDAFDIWGQGTLVTVSS VL: SYELTQPPSVSVSPGQTARITCSGDNIPHQYAYWYQQKPGQAPVLVIYKDTERPAGIPERFSGSSSGTTVTLTISGVQAEDEADYYCQSADPTGAYLVFGGGTKLTVL | 
 | ~2 nM | 6.6 fold | 1.18 nM | 2.4 fold | 2.7 fold | 0.0005 s⁻¹ | 430000 M⁻¹ s⁻¹ | no binding (tested: about 3300 nM) | scFv 470 (scFv, V domains shown, One-chain scFv, His-tagged) VH: EVQLVQSGAEVKKPGESLKISCKGSGYSFNSYWIGWVRQMPGKGLEWMGIIYPGDSDTRYSPSFQGQVTISADKSISTAYLQWSSLKASDTAMYYCARLGSSWTNDAFDIWGQGTLVTVSS VL: SYELTQPPSVSVSPGQTARITCSGDALDKQYAYWYQQKPGQAPVLVIYKDSERPSGIPERFSGSSSGTTVTLTISGVQAEDEADYYCQSVDSSETYVVFGGGTKLTVL | 
 | ~2 nM | 29.9 fold | 0.26 nM | 4.1 fold | 6.9 fold | 0.00029 s⁻¹ | 1.1e+06 M⁻¹ s⁻¹ | no binding (tested: about 3300 nM) | scFv 471 (scFv, V domains shown, One-chain scFv, His-tagged) VH: EVQLVQSGAEVKKPGESLKISCKGSGYSFNSYWIGWVRQMPGKGLEWMGIIYPGDSANRYSPSFQGQVTISADKSISTAYLQWSSLKASDTAMYYCARLGSSWTNDAFDIWGQGTLVTVSS VL: SYELTQPPSVSVSPGQTARITCSGDYLPKQYAYWYQQKPGQAPVLVIYKDTERPSGIPERFSGSSSGTTVTLTISGVQAEDEADYYCQSVDSSHPSVVFGGGTKLTVL | 
 | ~2 nM | 6 fold | 1.3 nM | 0.3 fold | 18.8 fold | 0.0038 s⁻¹ | 3e+06 M⁻¹ s⁻¹ | no binding (tested: about 3300 nM) | scFv 477 (scFv, V domains shown, One-chain scFv, His-tagged) VH: EVQLVQSGAEVKKPGESLKISCKGSGYSFSSYWIGWVRQMPGKGLEWMGIIYPGDSDTRYSPSFQGQVTISADKSISTAYLQWSSLKASDTAMYYCARLGSSWTNDAFDIWGQGTLVTVSS VL: SYELTQPPSVSVSPGQTARITCSGDYLPKQYAYWYQQKPGQAPVLVIYKDTERPSGIPERFSGSSSGTTVTLTISGVQAEDEADYYCQSADASGTYYVFGGGTKLTVL | 
